In paper PMC10729762, “CsrA selectively modulates sRNA-mRNA regulator outcomes”:

The binders below were run against CsrA;Hfq (Escherichia coli K-12 …, UniProt P69913;P0A6X3 1-61;1-102, |) (assay: EMSA; 6 uM CsrA + Hfq, likely ternary complex; 10 nM denatured RNA, 0-6 uM CsrA, 0-3 uM Hfq; 1X binding buffer (10 mM Tris-HCl pH 7.5, 10 mM MgCl2, 100 mM KCl) plus CsrA dilution buffer, 11% glycerol, 20 mM). Settings: protein: recombinant;recombinant; tags: ;; chain copies: 2;6; label: internal 32P-UTP.
Sequence of CsrA;Hfq (P69913 whole entry, chain 1 of 2): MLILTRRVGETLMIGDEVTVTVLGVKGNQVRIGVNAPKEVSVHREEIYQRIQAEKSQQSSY
Sequence of CsrA;Hfq (P0A6X3 whole entry, chain 2 of 2): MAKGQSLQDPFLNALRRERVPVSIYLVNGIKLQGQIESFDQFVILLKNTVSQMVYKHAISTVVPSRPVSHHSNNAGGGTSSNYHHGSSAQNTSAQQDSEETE

| Binder | binding result |
| --- | --- |
| ChiX (structured_RNA) RNA: ACACCGUCGCUUAAAGUGACGGCAUAAUAAUAAAAAAAUGAAAUUCCUCUUUGACGGGCCAAUAGCGAUAUUGGCCAUUUUUUU | binds |
| McaS (structured_RNA) RNA: ACCGGCGCAGAGGAGACAAUGCCGGAUUUAAGACGCGGAUGCACUGCUGUGUGUACUGUAGAGUCUGGCGGAUGUCGACAGACUCUAUUUUUU | binds |
| FnrS (structured_RNA) RNA: GCAGGUGAAUGCAACGUCAAGCGAUGGGCGUUGCGCUCCAUAUUGUCUUACUUCCUUUUUUGAAUUACUGCAUAGCACAAUUGAUUCGUACGACGCCGACUUUGAUGAGUCGGCUUUUUUUU | binds |
